± gives the standard error. For some assays here: Variants at the floor of the assay were thinned out.

Consider 10 variants from the supplement of paper PMC7125110.

B1: glmS ribozyme (parent)
chain: AUAAAAGCGCCAGAACUACAGAAAUGUAGUUGACGAGGAGGAGGUUUAUCGAAUUUUCGGCGGAUGCCUCCAAA

Settings in all cases: with glucosamine-6-phosphate
Variants of B1 are the subject of data set [1]. In words: kcat; higher = faster cleavage; RNA array. An outline of the steps: (§1)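 Ribozyme variants carrying barcodes were transcribed in situ on sequenced MiSeq chips by E. coli RNA polymerase and tracked at 37 °C with a hybridised Cy3 probe. They were exposed to 40 μM to 10 mM glucosamine-6-phosphate in HEPES/KCl/Mg(OAc)2 buffer. kobs came from exponential decay fits of normalised per-tile medians, and kcat and KM from weighted Michaelis–Menten fits.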

Variants of B1 are the subject of data set [2]. The experiment in a line: KM; higher = weaker cofactor use; RNA array. The procedure, abridged: as §1
The variants in data set [3] derive from B1. The experiment in a line: self-cleavage kobs at 640 uM GlcN6P; higher = faster cleavage; RNA array. The procedure, abridged:
as §1

Data set [4] covers variants of B1. In words: self-cleavage kobs at 2500 uM GlcN6P; higher = faster cleavage; RNA array. An outline of the steps: as §1
Variants of B1 are the subject of data set [5]. In words: self-cleavage kobs at 10000 uM GlcN6P; higher = faster cleavage; RNA array. An outline of the steps: as §1
Data set [6] covers variants of B1. The experiment in a line: self-cleavage kobs at 160 uM GlcN6P; higher = faster cleavage; RNA array. An outline of the steps: as §1
Variants of B1 are the subject of data set [7]. In words: self-cleavage kobs at 40 uM GlcN6P; higher = faster cleavage; RNA array. The procedure, abridged: as §1

As a reminder, the kcat is the maximal rate divided by the concentration of active sites. Usually KM stands for the concentration of substrate that gives half-maximal velocity. G32U U47G: the kcat in the data set with glucosamine-6-phosphate [1] was 0.000502 ± 8.1e-05 s⁻¹. Also, the KM in the data set with glucosamine-6-phosphate [2] was 4.7 ± 1.4 mM. For the same variant, in the data set with glucosamine-6-phosphate [3], the “self-cleavage kobs at 640 uM GlcN6P” value came to 5.12e-05 ± 1.7e-05 s⁻¹. The “self-cleavage kobs at 2500 uM GlcN6P” value with glucosamine-6-phosphate [4] amounted to 0.000189 ± 3.3e-05 s⁻¹. The “self-cleavage kobs at 10000 uM GlcN6P” value in the data set with glucosamine-6-phosphate [5] is 0.000336 ± 4.6e-05 s⁻¹.

With C61A C71G, the kcat in the data set with glucosamine-6-phosphate [1] amounted to 1.3e-05 ± 2.8e-06 s⁻¹.

For G26U C70A, in the data set with glucosamine-6-phosphate [1], the kcat is 0.000113 ± 4.5e-05 s⁻¹. In the data set with glucosamine-6-phosphate [6], the “self-cleavage kobs at 160 uM GlcN6P” value is 7.79e-05 ± 2.3e-05 s⁻¹. Also, the “self-cleavage kobs at 640 uM GlcN6P” value with glucosamine-6-phosphate [3] was found to be 6.27e-05 ± 1.2e-05 s⁻¹. Besides, the “self-cleavage kobs at 2500 uM GlcN6P” value with glucosamine-6-phosphate [4] was 0.0002 ± 4e-05 s⁻¹. For the same variant, the “self-cleavage kobs at 10000 uM GlcN6P” value with glucosamine-6-phosphate [5] stood at 0.000106 ± 1.9e-05 s⁻¹.

Consider C10G C68G, for which the kcat with glucosamine-6-phosphate [1] came out at 5.21e-05 ± 1.5e-05 s⁻¹. In the data set with glucosamine-6-phosphate [3], the “self-cleavage kobs at 640 uM GlcN6P” value is 4.42e-05 ± 1.8e-05 s⁻¹. The “self-cleavage kobs at 2500 uM GlcN6P” value in the data set with glucosamine-6-phosphate [4] was determined as 4.78e-05 ± 1.7e-05 s⁻¹.

Take A12U G59U: the kcat with glucosamine-6-phosphate [1] came out at 1.03e-05 ± 1e-06 s⁻¹.

For the variant C16A U55C, the kcat in the data set with glucosamine-6-phosphate [1] is 0.00122 ± 0.00014 s⁻¹. Moreover, the KM in the data set with glucosamine-6-phosphate [2] amounted to 2.12 ± 0.4 mM. For the same variant, the “self-cleavage kobs at 40 uM GlcN6P” value with glucosamine-6-phosphate [7] came out at 1.93e-05 ± 8.5e-06 s⁻¹. The “self-cleavage kobs at 160 uM GlcN6P” value with glucosamine-6-phosphate [6] worked out at 7.75e-05 ± 1.1e-05 s⁻¹. Also, the “self-cleavage kobs at 640 uM GlcN6P” value with glucosamine-6-phosphate [3] amounted to 0.00033 ± 4.4e-05 s⁻¹. Moreover, in the data set with glucosamine-6-phosphate [4], the “self-cleavage kobs at 2500 uM GlcN6P” value turned out to be 0.000717 ± 8e-05 s⁻¹. Besides, the “self-cleavage kobs at 10000 uM GlcN6P” value with glucosamine-6-phosphate [5] turned out to be 0.000949 ± 0.00011 s⁻¹.

Turning to A12C A48G, the kcat in the data set with glucosamine-6-phosphate [1] amounted to 5.38e-05 ± 6.8e-06 s⁻¹. For the same variant, the “self-cleavage kobs at 2500 uM GlcN6P” value in the data set with glucosamine-6-phosphate [4] stood at 4.26e-05 ± 1.2e-05 s⁻¹. Further, the “self-cleavage kobs at 10000 uM GlcN6P” value with glucosamine-6-phosphate [5] was determined as 4.66e-05 ± 7.1e-06 s⁻¹.

As for C11A C16G, the kcat with glucosamine-6-phosphate [1] is 0.000161 ± 3.7e-05 s⁻¹. Moreover, the “self-cleavage kobs at 10000 uM GlcN6P” value in the data set with glucosamine-6-phosphate [5] came out at 5.99e-05 ± 1.1e-05 s⁻¹.

Consider U65A C67G, for which the kcat in the data set with glucosamine-6-phosphate [1] stood at 0.000463 ± 7.8e-05 s⁻¹. Besides, the KM with glucosamine-6-phosphate [2] was 0.958 ± 0.27 mM. Also, in the data set with glucosamine-6-phosphate [7], the “self-cleavage kobs at 40 uM GlcN6P” value was 2.9e-05 ± 8.7e-06 s⁻¹. For the same variant, in the data set with glucosamine-6-phosphate [6], the “self-cleavage kobs at 160 uM GlcN6P” value worked out at 6.44e-05 ± 9.1e-06 s⁻¹. Further, in the data set with glucosamine-6-phosphate [3], the “self-cleavage kobs at 640 uM GlcN6P” value amounted to 0.000173 ± 2.2e-05 s⁻¹. The “self-cleavage kobs at 2500 uM GlcN6P” value in the data set with glucosamine-6-phosphate [4] was determined as 0.000422 ± 6.2e-05 s⁻¹. Also, in the data set with glucosamine-6-phosphate [5], the “self-cleavage kobs at 10000 uM GlcN6P” value was found to be 0.000386 ± 6.4e-05 s⁻¹.

With A6U G29U, in the data set with glucosamine-6-phosphate [1], the kcat stood at 5.83e-05 ± 3.7e-06 s⁻¹. The KM in the data set with glucosamine-6-phosphate [2] was determined as 5.56 ± 0.69 mM. For the same variant, the “self-cleavage kobs at 40 uM GlcN6P” value with glucosamine-6-phosphate [7] was less than 1e-05 s⁻¹. The “self-cleavage kobs at 10000 uM GlcN6P” value in the data set with glucosamine-6-phosphate [5] amounted to 3.74e-05 ± 1.7e-05 s⁻¹.
